Laboratory results published in US20200325187A1 (Genentech, published 2020).
Where a chain is given by its changes, count along the chain named. Where two headings read alike, the source gives them in different places.

Tests used:
hVEGF-A [1] = biological target: T1, hVEGF-A (human, UniProt P15692-4 27-191, limits assumed); assay: KDR-VEGF competition ELISA
T1 construct: also called human VEGF-A; WT

human VEGF-A 165 [2] = biological target: T2, human VEGF-A 165 (human, UniProt P15692-4 27-191); assay: competition ELISA: VEGF-A 165 coated, constant KDR receptor, peptide titrated; blocked ligand: KDR
Procedure: (§1) Binding specificity of each peptide was established by competition ELISA. […] After blocking with block buffer (PBS with 0.5% BSA and 0.05% TWEEN®20) for 2 hours at room temperature, the receptor-Fc fusions or biotinylated receptors were serially diluted using assay buffer (PBS with 0.5% BSA and 0.05% TWEEN®20) and incubated for 1 hour at room temperature. […] Competition ELISA was conducted in an identical fashion as described above except after blocking, a mixture of serially diluted peptide containing a constant concentration of receptor-Fc fusion or biotinylated receptor (concentration of receptor was set to EC₆₀) was added and incubated for 1 hour. All recombinant human proteins and antibodies were purchased from R &D Systems (Minneapolis, Minn.).

hVEGF-A [3] = biological target: T1, hVEGF-A; assay: cell-based or functional assay
IGF-1 = IGF-1 (human, UniProt P05019 49-118); assay: competition ELISA: IGF coated, constant IGFR receptor, peptide titrated
PIGF-2 = biological target: T3, PIGF-2 (human, UniProt P49763-3 19-170); assay: competition ELISA: PIGF-2 coated, constant Flt-1 receptor, peptide titrated
T3 construct: also called P1Gf-2; P1GF
T3 sequence (looked up): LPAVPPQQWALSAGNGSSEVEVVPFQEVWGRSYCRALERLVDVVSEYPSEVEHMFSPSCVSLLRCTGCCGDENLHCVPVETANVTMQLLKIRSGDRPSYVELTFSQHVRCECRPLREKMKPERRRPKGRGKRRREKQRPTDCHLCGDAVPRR

hVEGF-A [4] = biological target: T1, hVEGF-A; assay: cell-based or functional assay; remark: listed apart in the source
hVEGF-A [5] = biological target: T1, hVEGF-A; assay: SPR
hVEGF-A (8-109) [6] = biological target: T4, hVEGF-A (8-109) (human, UniProt P15692 214-315); assay: competition ELISA: VEGF-A (8-109) coated, constant KDR receptor, peptide titrated; blocked ligand: KDR
T4 sequence (looked up): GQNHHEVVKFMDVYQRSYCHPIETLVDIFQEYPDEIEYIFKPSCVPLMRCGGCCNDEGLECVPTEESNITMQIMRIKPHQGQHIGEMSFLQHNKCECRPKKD
Procedure: as §1

hVEGF-A [7] = biological target: T1, hVEGF-A; assay: cell-based or functional assay; remark: listed apart in the source
PDGF-ββ = PDGF-ββ (human, UniProt P01127 82-190); assay: competition ELISA: PDGF coated, constant PDGFR receptor, peptide titrated
EGF = EGF (human, UniProt P01133 971-1023); assay: competition ELISA: EGF coated, constant EGFR receptor, peptide titrated
hVEGF-A [8] = biological target: T1, hVEGF-A; assay: cell-based or functional assay; remark: listed apart in the source
hVEGF-A (8-109) [9] = biological target: T4, hVEGF-A (8-109); assay: competition ELISA: VEGF-A (8-109) coated, constant Flt-1 receptor, peptide titrated; blocked ligand: Flt-1
Procedure: as §1

hVEGF-A [10] = biological target: T1, hVEGF-A; assay: SPR; remark: listed apart in the source
Procedure: (§2) Depending on the format of the assay either a streptavidin sensor (SA) or a dextran-coated (CM5) sensor was utilized as described below.
(§3) Reaction was then quenched by addition of 10 molar excess of Glycine pH 8.0 and the sample was buffer exchanged into PBS using an Amicon 0.5 mL 3000 MWCO ultra-centrifugal filters (EMD Millipore). The biotinylation state of the protein was verified by LC-MS analysis. Biotinylated VEGF-A was then captured on the surface until a resonance unit (RU) signal of about ˜400. For immobilization of VEGF-A on CM5 sensor, the surface was first activated with a mixture of N-ethyl-N′-(3-dimethylaminopropyl)carbodiimide hydrochloride and N-hydroxysuccinimide (EDC/NHS) according to the supplier instructions. VEGF-A was then diluted into coupling buffer (0.1 M Acetate Buffer, pH 5.0) and injected until the signal reached about ˜400 RU followed by a wash with 1 M ethanolamine pH 8.0 to quench remaining activated sites.

hVEGF-A K48A = biological target: T5, hVEGF-A K48A (human, UniProt P15692-4 34-135, K48A); assay: SPR
T5 construct: position probably counted on the mature protein
T5 sequence (looked up): T4 sequence (looked up) with K41A
Procedure: as §2, §3

human VEGF-A 165 [11] = biological target: T2, human VEGF-A 165; assay: competition ELISA: VEGF-A 165 coated, constant KDR receptor, peptide titrated; blocked ligand: KDR; remark: listed apart in the source
Procedure: as §1
Target sequence in this assay (P15692 other isoform, or with tags, fused parts or gaps limits assumed): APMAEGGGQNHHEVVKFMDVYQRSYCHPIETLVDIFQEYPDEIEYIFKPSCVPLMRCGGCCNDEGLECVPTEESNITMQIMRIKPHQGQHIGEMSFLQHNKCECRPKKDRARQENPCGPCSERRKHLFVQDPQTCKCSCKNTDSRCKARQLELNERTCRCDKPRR

hVEGF-A (8-109) [12] = biological target: T4, hVEGF-A (8-109); assay: competition ELISA: VEGF-A (8-109) coated, constant KDR receptor, peptide titrated; blocked ligand: KDR; remark: listed apart in the source
Procedure: as §1

VEGF-C = biological target: T6, VEGF-C (human, UniProt P49767 103-227, limits assumed); assay: competition ELISA: VEGF-C coated, constant Flt-4 receptor, peptide titrated
T6 sequence (looked up): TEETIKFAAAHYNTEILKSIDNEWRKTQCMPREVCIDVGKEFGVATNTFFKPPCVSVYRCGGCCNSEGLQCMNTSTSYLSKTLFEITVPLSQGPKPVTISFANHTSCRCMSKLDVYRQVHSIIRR

EGF, sequence (P01133 971-1023 limits assumed): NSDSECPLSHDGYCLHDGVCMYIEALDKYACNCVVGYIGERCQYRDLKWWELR
PDGF-ββ, sequence (P01127 82-190): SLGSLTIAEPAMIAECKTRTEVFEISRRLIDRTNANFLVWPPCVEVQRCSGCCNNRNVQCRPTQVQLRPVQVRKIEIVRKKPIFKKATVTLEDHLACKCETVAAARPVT

GCNIMLPFWGCGRDFECLAGCVCQYYQSCG (designed binder) [VEGF_CKP9.54.90]
IC50 (hVEGF-A [1]): 0.2 nM | IC50 (read off the curve) (human VEGF-A 165 [2]): ~30 nM | Cellular IC50 (hVEGF-A [3]): 1.35 nM | FOLD [..] [..] TO VARIANT 9.54.90 (hVEGF-A [3]): 1 fold | binding result (IGF-1): no binding (tested: 5 µM) | binding result (PIGF-2): no binding (tested: 5 µM) | IC50 (read off the curve) (hVEGF-A [4]): ~60 nM | Kd (hVEGF-A [5]): 0.4 nM | IC50 (read off the curve) (hVEGF-A (8-109) [6]): ~20 nM | Cellular IC50 (hVEGF-A [7]): 1.35 nM | binding result (PDGF-ββ): no binding (tested: 5 µM) | binding result (EGF): no binding (tested: 5 µM) | Cellular IC50 (hVEGF-A [8]): 1.35 nM | FOLD [..] [..] TO VARIANT 9.54.90 (hVEGF-A [8]): 1 fold | IC50 (read off the curve) (hVEGF-A (8-109) [9]): ~70 nM | Kd (hVEGF-A [10]): 0.37 nM | Kd (hVEGF-A K48A): 0.19 nM | IC50 (read off the curve) (human VEGF-A 165 [11]): ~30 nM | IC50 (read off the curve) (hVEGF-A (8-109) [12]): ~20 nM | binding result (VEGF-C): no binding (tested: 5 µM)
